Target: human zalpha11 receptor (full-length, on cells) (human) (UniProt Q9HBE5)
Experiment: cell-based or functional assay

Sequence of UniProt Q9HBE5 (Q9HBE5 20-538 limits assumed): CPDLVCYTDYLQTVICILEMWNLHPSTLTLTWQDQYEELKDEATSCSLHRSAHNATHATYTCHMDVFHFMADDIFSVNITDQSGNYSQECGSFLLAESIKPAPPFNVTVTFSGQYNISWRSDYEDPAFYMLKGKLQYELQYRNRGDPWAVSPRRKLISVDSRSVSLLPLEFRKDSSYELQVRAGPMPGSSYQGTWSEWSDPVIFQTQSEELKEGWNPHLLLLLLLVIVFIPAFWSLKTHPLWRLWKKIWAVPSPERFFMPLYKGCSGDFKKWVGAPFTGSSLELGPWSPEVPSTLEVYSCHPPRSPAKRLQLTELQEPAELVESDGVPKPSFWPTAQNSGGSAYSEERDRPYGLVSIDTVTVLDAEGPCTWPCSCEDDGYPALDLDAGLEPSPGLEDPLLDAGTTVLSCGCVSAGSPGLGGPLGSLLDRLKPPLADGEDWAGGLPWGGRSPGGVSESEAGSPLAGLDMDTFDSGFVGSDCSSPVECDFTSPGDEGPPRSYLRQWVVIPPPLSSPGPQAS
Sequence of human zalpha11 Ligand-saporin immunotoxin conjugate (Q9HBE4 32-162): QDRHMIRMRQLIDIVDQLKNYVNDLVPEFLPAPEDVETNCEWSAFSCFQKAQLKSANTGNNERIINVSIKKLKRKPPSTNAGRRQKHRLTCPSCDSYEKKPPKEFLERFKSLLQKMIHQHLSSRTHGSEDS

human zalpha11 Ligand-saporin immunotoxin conjugate
growth inhibition of IM-9 cells at the maximal conjugate concentration (250 ng/ml), Alamar Blue: 79%
growth inhibition of RAMOS cells at the maximal conjugate concentration (250 ng/ml), Alamar Blue: 65%

From US20070059825A1
